Assay results published in patent US20180282373A1 (RESEARCH FOUNDATION FOR THE STATE UNIVERSITY OF NEW YORK, published 2018).

Experiments:
[1] = target: endogenous WDR5 (MCF-7 cell extracts; T-REx HEK293 nuclear extracts) (human, UniProt P61964 2-334); assay: anti-Flag co-immunoprecipitation from T-REx HEK293 cells, Western blot
Procedure: Co-immunoprecipitation from mammalian cells. […] Following induction with doxycycline, nuclear extracts were prepared as described and incubated with anti-Flag M2 agarose beads (Sigma) for 3 h. Bound proteins were eluted with SDS sample buffer after extensive washing and analyzed by Western blotting.

[2] = target: T1, purified recombinant full-length WDR5 (UniProt P61964 2-334); assay: GST pull-down with purified WDR5, Coomassie-stained gel
[3] = target: T1, purified recombinant full-length WDR5; assay: cell-based or functional assay
[4] = target: T1, purified recombinant full-length WDR5; assay: cell-based or functional assay; remark: listed apart in the source
[5] = target: T1, purified recombinant full-length WDR5; assay: ITC, Kd compared with Table I
Procedure: (§1) In the present disclosure, we synthesized a six-residue peptidomimetic.
(§2) Isothermal titration calorimetry (ITC). […] ITC experiments were carried out at 20° C. using a VP-ITC micro-calorimeter (MicroCal). […] Reference power was set to 10 μCal/sec and stirring speed was set to 295 rpm. Data were integrated using NITPIC. SEDPHAT was used to fit the integrated data to a single-site heterogeneous association model, using simulated annealing and Maxquardt-Levenberg algorithms. Automatic confidence interval search with projection method was applied to estimate the error of the determined thermodynamic parameters. Confidence interval was set to 2σ (95%). ITC figure was generated using GUSSI.

[6] = target: T1, purified recombinant full-length WDR5; assay: ITC at 20 C, Win6mer (200 µM) titrated into full-length WDR5 (20 µM); 95% confidence interval 1.7-4.2 nM
Procedure: as §1, §2

B1: Flag-tagged full-length human SETd1B, Win motif arginine to alanine mutant (enzyme)
chain: MENSHPPHHHHQQPPPQPGPSGERRNHHWRSYKLMIDPALKKGHHKLYRYDGQHFSLAMSSNRPVEIVEDPRVVGIWTKNKELELSVPKFKIDEFYVGPVPPKQVTFAKLNDNIRENFLRDMCKKYGEVEEVEILYNPKTKKHLGIAKVVFATVRGAKDAVQHLHSTSVMGNIIHVELDTKGETRMRFYELLVTGRYTPQTLPVGELDAVSPIVNETLQLSDALKRLKDGGLSAGCGSGSSSVTPNSGGTPFSQDTAYSSCRLDTPNSYGQGTPLTPRLGTPFSQDSSYSSRQPTPSYLFSQDPAVTFKARRHESKFTDAYNRRHEHHYVHNSPAVTAVAGATAAFRGSSDLPFGAVGGTGGSSGPPFKAQPQDSATFAHTPPPAQATPAPGFKSAFSPYQTPVAHFPPPPEEPTATAAFGARDSGEFRRAPAPPPLPPAEPLAKEKPGTPPGPPPPDTNSMELGGRPTFGWSPEPCDSPGTPTLESSPAGPEKPHDSLDSRIEMLLKEQRTKLLFLREPDSDTELQMEGSPISSSSSQLSPLAPFGTNSQPGFRGPTPPSSRPSSTGLEDISPTPLPDSDEDEELDLGLGPRPPPEPGPPDPAGLLSQTAEVALDLVGDRTPTSEKMDEGQQSSGEDMEISDDEMPSAPITSADCPKPMVVTPGAAAVAAPSVLAPTLPLPPPPGFPPLPPPPPPPPPQPGFPMPPPLPPPPPPPPPAHPAVTVPPPPLPAPPGVPPPPILPPLPPFPPGLFPVMQVDMSHVLGGQWGGMPMSFQMQTQVLSRLMTGQGACPYPPFMAAAAAAASAGLQFVNLPPYRGPFSLSNSGPGRGQHWPPLPKFDPSVPPPGYMPRQEDPHKATVDGVLLVVLKELKAIMKRDLNRKMVEVVAFRAFDEWWDKKERMAKASLTPVKSGEHKDEDRPKPKDRIASCLLESWGKGEGLGYEGLGLGIGLRGAIRLPSFKVKRKEPPDTTSSGDQKRLRPSTSVDEEDEESERERDRDMADTPCELAKRDPKGVGVRRRPARPLELDSGGEEDEKESLSASSSSSASSSSGSSTTSPSSSASDKEEEQESTEEEEEAEEEEEEEVPRSQLSSSSTSSTSDKDDDDDDSDDRDESENDDEDTALSEASEKDEGDSDEEETVSIVTSKAEATSSSESSESSEFESSSESSPSSSEDEEEVVAREEEEEEEEEEMVAEESMASAGPEDFEQDGEEAALAPGAPAVDSLGMEEEVDIETEAVAPEERPSMLDEPPLPVGVEEPADSREPPEEPGLSQEGAMLLSPEPPAKEVEARPPLSPERAPEHDLEVEPEPPMMLPLPLQPPLPPPRPPRPPSPPPEPETTDASHPSVPPEPLAEDHPPHTPGLCGSLAKSQSTETVPATPGGEPPLSGGSSGLSLSSPQVPGSPFSYPAPSPSLSSGGLPRTPGRDFSFTPTFSEPSGPLLLPVCPLPTGRRDERSGPLASPVLLETGLPLPLPLPLPLPLALPAVLRAQARAPTPLPPLLPAPLASCPPPMKRKPGRPRRSPPSMLSLDGPLVRPPAGAALGRELLLLPGQPQTPVFPSTHDPRTVTLDFRNAGIPAPPPPLPPQPPPPPPPPPVEPTKLPFKELDNQWPSEAIPPGPRGRDEVTEEYMELAKSRGPWRRPPKKRHEDLVPPAGSPELSPPQPLFRPRSEFEEMTILYDIWNGGIDEEDIRFLCVTYERLLQQDNGMDWLNDTLWVYHPSTSLSSAKKKKRDDGIREHVTGCAASEGFYTIDKKDKLRYLNSSRASTDEPPADTQGMSIPAQPHASTRAGSERRSEQRRLLSSFTGSCDSDLLKFNQLKFRKKKLKFCKSHIHDWGLFAMEPIAADEMVIEYVGQNIRQVIADMREKRYEDEGIGSSYMFRVDHDTIIDATKCGNFARFINHSCNPNCYAKVITVESQKKIVIYSKQHINVNEEITYDYKFPIEDVKIPCLCGSENCRGTLN
notes: mature; also called SETd1B Win motif mutant (full-length); not shown: Flag tag
[1]
  binding result: no binding

B2: GST-tagged SETd1B Win-SET domain, Setd1B(1727-1966), R1748A (enzyme)
chain: LSSAKKKKRDDGIREHVTGCAASEGFYTIDKKDKLRYLNSSRASTDEPPADTQGMSIPAQPHASTRAGSERRSEQRRLLSSFTGSCDSDLLKFNQLKFRKKKLKFCKSHIHDWGLFAMEPIAADEMVIEYVGQNIRQVIADMREKRYEDEGIGSSYMFRVDHDTIIDATKCGNFARFINHSCNPNCYAKVITVESQKKIVIYSKQHINVNEEITYDYKFPIEDVKIPCLCGSENCRGTLN
notes: also called SETd1B^R1748A; SETd1B Win motif mutant; not shown: GST tag of the pGST parallel vector, with its linker, at the N end
[2]
  binding result: no binding (tested: 3 µM)

B3: Win6mer, Ac-ARTEVY-NH2 (SEQ ID NO:8, N-terminus acetylated and C-terminus amidated) (peptide)
peptide: Ac-ARTEVY-NH2
notes: Synthesized by GenScript; also called 6-mer Win motif peptidomimetic
[3]
  IC50, inhibition of MLL1 core complex, 0.5 µM enzyme complex assayed: 0.3 µM
  IC50, inhibition of MLL1 core complex, 1 µM enzyme complex assayed: 0.8 µM
  IC50, inhibition of MLL1 core complex, 1.8 µM enzyme complex assayed: 2.2 µM
  average IC50, inhibition of MLL1 core complex (2 µM of enzyme complex assayed): 2.2 µM
  average IC50, inhibition of SETd1A core complex (2 µM of enzyme complex assayed): 2.5 µM
[4]
  IC50, inhibition of MLL1 core complex methyltransferase activity, H3K4me0 substrate (scintillation proximity assay): 2.3 µM
  IC50, inhibition of MLL1 core complex methyltransferase activity, H3K4me1 substrate (scintillation proximity assay): 2.2 µM
  IC50, inhibition of SETd1A core complex methyltransferase activity, H3K4me0 substrate (scintillation proximity assay): 3.2 µM
  IC50, inhibition of SETd1A core complex methyltransferase activity, H3K4me1 substrate (scintillation proximity assay): 2.9 µM
  IC50, inhibition of SETd1A core complex methyltransferase activity, H3K4me2 substrate (scintillation proximity assay): 2.4 µM
[5]
  fold increase in binding affinity over the best naturally occurring Win motif sequence: ~18 fold
[6]
  Kd: 0.0029 µM
